The assay deals with T1, SOX2 peptide on HLA-A*02:01 (human).
T1 peptide: YLPGAEVPEPA
Kind of assay: multimer staining. How it is done: Methods: TCR expression vectors were sequenced after Gibson assembly to confirm successful insertion of the TCR expression cassettes into the pRRLSIN vector. Lentiviral particles were generated using the 293T/17 packaging cell line and the Effectene kit (Qiagen). CD8⁺ T cells were isolated from a healthy donor (18648) using negative magnetic separation (Easy Sep Kit, […] Technologies), stimulated for 4 hours with anti-CD3/CD28 beads (Dynabeads), and transduced with SOX2-TCR-encoding lentiviral particles collected from 293T/17 cells. Transduced CD8⁺ T cells were assessed for tetramer staining on day 5 post transduction. SOX2-TCR⁺ CD8⁺ T cells are sorted for rapid expansion, and assessed for response to different peptide concentrations, and target killing.

B1: SOX2 TCR #10 (TCR, V domains shown)
Valpha: GEDVEQSLFLSVREGDSSVINCTYTDSSSTYLYWYKQEPGAGLQLLTYIFSNMDMKQDQRLTVLLNKKDKHLSLRIADTQTGDSAIYFCAGPLGGSQGNLIFGKGTKLSVKP
Vbeta: EADIYQTPRYLVIGTGKKITLECSQTMGHDKMYWYQQDPGMELHLIHYSYGVNSTEKGDLSSESTVSRIRTEHFPLTLESARPSHTSQYLCASSRGPEAFFGQGTRLTVV
Take B1: the binding result is recorded as “recognises”.

B2: SOX2 TCR #05 (TCR, V domains shown)
Valpha: AQKITQTQPGMFVQEKEAVTLDCTYDTSDPSYGLFWYKQPSSGEMIFLIYQGSYDQQNATEGRYSLNFQKARKSANLVISASQLGDSAMYFCAMREGMGFQKLVFGTGTRLLVSP
Vbeta: DVKVTQSSRYLVKRTGEKVFLECVQDMDHENMFWYRQDPGLGLRLIYFSYDVKMKEKGDIPEGYSVSREKKERFSLILESASTNQTSMYLCASRPEMGGRGNQPQHFGDGTRLSIL
Turning to B2, the binding result is on record as “recognises”.
